Assay results taken from article PMC3656037.

Tested on: Sau-PolC-ΔNΔExo (Staphylococcus aureus)
Assay: active site titration (pre-steady-state burst amplitude vs DNA, quadratic fit)
Conditions: Reaction buffer, salt, pH and temperature not given in the material; DNA annealed in 10 mM Tris-HCl pH 8, 1 mM EDTA, 100 mM NaCl; protein stored in 50 mM …

## primer/template (p/t) DNA
  Kd: 390 nM
